Measured values published in PMC7170532.

Biological target: latent myostatin (human) (UniProt O14793)
Test: SEC-MALS; SRT SEC-500 column, 20 mM phosphate, 200 mM NaCl pH 6.8; latent myostatin alone; 94 kDa observed, 82 kDa calculated

Chain of latent myostatin (O14793 whole entry, looked up): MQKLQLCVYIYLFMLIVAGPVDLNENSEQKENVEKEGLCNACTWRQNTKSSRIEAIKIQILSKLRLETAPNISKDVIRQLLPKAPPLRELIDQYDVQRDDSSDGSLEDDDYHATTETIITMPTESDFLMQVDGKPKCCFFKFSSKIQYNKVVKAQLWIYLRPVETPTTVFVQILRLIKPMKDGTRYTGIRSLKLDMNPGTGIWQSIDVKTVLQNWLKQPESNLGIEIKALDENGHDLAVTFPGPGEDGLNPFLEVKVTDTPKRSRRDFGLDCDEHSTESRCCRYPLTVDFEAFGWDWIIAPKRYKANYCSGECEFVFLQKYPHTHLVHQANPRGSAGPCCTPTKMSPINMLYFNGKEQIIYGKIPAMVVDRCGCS

For “latent myostatin (from UniProt O14793 267-375) (complex)”, the stoichiometry N was 2.
